# How the values were obtained:
# Format in all cases: binding
# Details in all cases: β-galactosidase ONPG assay, 1 μM ligand or vehicle
# [1] = molecular target: T1, VDR (LBD of human Vitamin D receptor) (Homo sapiens, UniProt P11473); test: Yeast two-hybrid interaction with VDR
# T1 construct: VDR (LBD of human Vitamin D receptor); expressed in transfected cells; host or cells: Saccharomyces cerevisiae Y190
# T1 sequence (P11473 127-423 limits assumed): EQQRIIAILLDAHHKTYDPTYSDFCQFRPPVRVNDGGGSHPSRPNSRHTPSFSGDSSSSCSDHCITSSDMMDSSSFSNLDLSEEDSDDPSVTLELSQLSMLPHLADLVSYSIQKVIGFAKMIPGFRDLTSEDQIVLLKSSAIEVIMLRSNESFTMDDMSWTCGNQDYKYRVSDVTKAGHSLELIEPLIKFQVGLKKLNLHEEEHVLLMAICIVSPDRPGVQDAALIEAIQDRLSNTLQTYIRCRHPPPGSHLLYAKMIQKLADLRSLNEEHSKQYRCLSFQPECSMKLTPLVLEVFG
# T1 sequence (Q9Y6Q9 401-1204 E704Q partner limits assumed): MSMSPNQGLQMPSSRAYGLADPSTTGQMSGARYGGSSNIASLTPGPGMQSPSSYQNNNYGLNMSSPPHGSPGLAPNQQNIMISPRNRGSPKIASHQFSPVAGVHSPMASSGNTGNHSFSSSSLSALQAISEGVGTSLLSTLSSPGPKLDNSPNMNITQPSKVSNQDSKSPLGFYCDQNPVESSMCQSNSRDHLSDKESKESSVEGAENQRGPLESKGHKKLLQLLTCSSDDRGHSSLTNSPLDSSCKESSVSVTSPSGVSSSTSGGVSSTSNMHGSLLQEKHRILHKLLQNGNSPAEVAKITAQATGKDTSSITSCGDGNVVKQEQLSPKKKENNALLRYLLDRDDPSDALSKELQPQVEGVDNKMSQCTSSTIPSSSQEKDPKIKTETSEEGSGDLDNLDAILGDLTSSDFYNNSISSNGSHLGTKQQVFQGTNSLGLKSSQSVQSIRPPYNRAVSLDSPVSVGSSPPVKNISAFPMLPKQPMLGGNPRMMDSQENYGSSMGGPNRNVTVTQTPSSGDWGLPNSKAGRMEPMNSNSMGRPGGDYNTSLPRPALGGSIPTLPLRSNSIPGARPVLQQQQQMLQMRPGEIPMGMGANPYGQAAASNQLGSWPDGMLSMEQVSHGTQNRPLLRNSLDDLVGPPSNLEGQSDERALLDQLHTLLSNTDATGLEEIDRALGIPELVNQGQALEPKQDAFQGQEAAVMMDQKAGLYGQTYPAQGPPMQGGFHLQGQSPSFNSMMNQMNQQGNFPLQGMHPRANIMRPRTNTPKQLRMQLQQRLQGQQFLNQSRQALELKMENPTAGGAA
# Description: (§1) The protein—protein interactions between RAC3 and several steroid/nuclear receptors were analyzed by the yeast two-hybrid system. The original two-hybrid clone, RAC3.1 in pGAD10 vector, was retransformed together with yeast expression vectors for Gal4 DBD fusion of selected hormone receptor genes into Y190 cells. The receptors used include RAR (full-length hRARα), RXR (full-length hRXRα), VDR (LBD of human Vitamin D receptor), PPAR (LBD of mPPARα), TR (LBD) of hTRβ), COUP (LBD of COUP-TFI). Three independent colonies from each transformation were selected and analyzed for expression of […] activities by liquid ONPG assay (FIG. 6) after treatment with 1 μM of corresponding ligands (closed bars), or with equal concentration of vehicle alone (open bars). […] The ligands used in these experiments were atRA, VitD3 (1,25-dihydroxyvitamin D3), and Wy (Wy 14,642). […] In the absence of ligand, RAC3 can interact with RAR and PPAR.
# [2] = molecular target: T2, RXR (full-length hRXRα) (Homo sapiens, UniProt P19793); test: Yeast two-hybrid interaction with RXR
# T2 construct: RXR (full-length hRXRα); expressed in transfected cells; host or cells: Saccharomyces cerevisiae Y190
# T2 sequence (P19793 1-462): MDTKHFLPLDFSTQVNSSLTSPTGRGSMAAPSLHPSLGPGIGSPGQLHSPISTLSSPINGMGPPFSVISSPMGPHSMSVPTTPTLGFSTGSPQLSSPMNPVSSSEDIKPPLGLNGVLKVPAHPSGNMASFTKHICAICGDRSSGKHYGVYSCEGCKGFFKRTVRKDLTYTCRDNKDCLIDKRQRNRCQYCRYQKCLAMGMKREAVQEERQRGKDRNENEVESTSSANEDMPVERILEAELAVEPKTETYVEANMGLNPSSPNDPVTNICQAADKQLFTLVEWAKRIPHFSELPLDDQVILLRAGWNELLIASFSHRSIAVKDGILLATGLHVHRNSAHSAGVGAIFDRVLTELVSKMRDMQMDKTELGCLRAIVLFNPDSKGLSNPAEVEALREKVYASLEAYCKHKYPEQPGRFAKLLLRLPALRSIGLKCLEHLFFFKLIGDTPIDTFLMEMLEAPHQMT
# T2 sequence (Q9Y6Q9 401-1204 E704Q partner limits assumed): T1 sequence (Q9Y6Q9 401-1204 E704Q partner limits assumed)
# Description: as §1
# [3] = molecular target: T3, RAR (full-length hRARα) (Homo sapiens, UniProt P10276); test: Yeast two-hybrid interaction with RAR
# T3 construct: RAR (full-length hRARα); expressed in transfected cells; host or cells: Saccharomyces cerevisiae Y190
# T3 sequence (P10276 1-462): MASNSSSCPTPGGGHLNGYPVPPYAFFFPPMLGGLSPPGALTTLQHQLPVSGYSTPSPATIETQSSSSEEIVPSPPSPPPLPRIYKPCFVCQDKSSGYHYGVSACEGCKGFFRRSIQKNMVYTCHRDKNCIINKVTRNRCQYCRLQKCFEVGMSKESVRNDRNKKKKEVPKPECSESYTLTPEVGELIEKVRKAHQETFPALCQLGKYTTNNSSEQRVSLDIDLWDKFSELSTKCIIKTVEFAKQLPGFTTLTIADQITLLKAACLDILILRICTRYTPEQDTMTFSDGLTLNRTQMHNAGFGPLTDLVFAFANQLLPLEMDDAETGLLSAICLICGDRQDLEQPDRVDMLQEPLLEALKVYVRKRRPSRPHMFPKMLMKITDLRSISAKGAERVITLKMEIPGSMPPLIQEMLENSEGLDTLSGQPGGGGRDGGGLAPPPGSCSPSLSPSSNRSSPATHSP
# T3 sequence (Q9Y6Q9 401-1204 E704Q partner limits assumed): T1 sequence (Q9Y6Q9 401-1204 E704Q partner limits assumed)
# Description: as §1
# [4] = molecular target: T4, TR (LBD) of hTRβ (Homo sapiens, UniProt P10828); test: Yeast two-hybrid interaction with TR
# T4 construct: TR (LBD) of hTRβ); expressed in transfected cells; host or cells: Saccharomyces cerevisiae Y190
# T4 sequence (P10828 217-461 limits assumed): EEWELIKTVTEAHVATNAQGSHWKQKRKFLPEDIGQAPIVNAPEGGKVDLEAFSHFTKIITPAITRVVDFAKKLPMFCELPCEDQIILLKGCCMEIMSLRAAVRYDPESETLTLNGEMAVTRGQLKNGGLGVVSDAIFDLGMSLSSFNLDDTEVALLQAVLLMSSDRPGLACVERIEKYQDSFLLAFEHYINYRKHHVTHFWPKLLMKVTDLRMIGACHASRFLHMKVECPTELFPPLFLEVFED
# T4 sequence (Q9Y6Q9 401-1204 E704Q partner limits assumed): T1 sequence (Q9Y6Q9 401-1204 E704Q partner limits assumed)
# Description: as §1
substance,measurement,setting,value
"RAC3: transcriptional coactivator of steroid/nuclear receptors, protein of about 1417 amino acids (SEQ ID NO:2); RAC3.1 is the two-hybrid clone, amino acids 401–1204",interaction with VDR,[1],ligand-dependent manner
same,interaction with RXR,[2],ligand-dependent manner
same,interaction with RAR,[3],Ligand treatment enhanced these interactions
same,interaction with TR,[4],ligand-dependent manner

# Source: patent publication US7132258B1, “Nucleic acid encoding vitamin D receptor related polypeptide” (University of Massachusetts, priority 1998, dated 2006)
